In one assay the target is T1, ldLIMP2 (Homo sapiens, UniProt Q14108).
T1 construct: Purified luminal domain LIMP-2 (1d-LIMP2) was custom made (Sino Biological Inc., PRC.); purchased Sino Biological Inc
T1 sequence (Q14108 28-433 limits assumed): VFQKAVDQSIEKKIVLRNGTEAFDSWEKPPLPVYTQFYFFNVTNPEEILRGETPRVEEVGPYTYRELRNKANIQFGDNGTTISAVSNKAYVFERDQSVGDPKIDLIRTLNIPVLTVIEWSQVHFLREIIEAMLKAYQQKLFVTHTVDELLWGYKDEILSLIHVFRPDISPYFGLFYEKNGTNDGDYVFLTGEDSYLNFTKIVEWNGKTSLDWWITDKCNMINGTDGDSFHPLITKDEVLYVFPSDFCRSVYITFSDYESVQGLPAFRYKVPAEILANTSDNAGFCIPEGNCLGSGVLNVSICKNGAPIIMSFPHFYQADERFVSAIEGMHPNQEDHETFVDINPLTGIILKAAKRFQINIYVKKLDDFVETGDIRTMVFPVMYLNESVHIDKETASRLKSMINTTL
Put plainly: Fluorescence polarization binding and competition of DDQRLLL GCase peptides to ldLIMP2. The following applies: ldLIMP2 fixed at 1000 nM; FIG. 13. As for the experimental part: FIG. 13A-FIG. 13B: Competition and binding of fluorescent labeled or unlabeled DDQRLLL (SEQ ID NO 14) GCase peptides to ldLIMP2. FIG. 13A depicts the δmP of the WT (DDQRLLL (SEQ ID NO 14)) or variously alanine substituted labeled peptides were plotted against the corresponding unlabeled peptide competitors. Note that the fixed ldLIMP2 concentration was 1000 nM or 20 times that used in similar studies (FIG. 7A-FIG. 7C). For all peptides the δmP were near or at background levels. FIG. 13B depicts the binding δmP for the various peptides as in FIG. 13A. The signals were near background levels for all peptides using concentrations 5 to 10 times that for DSPIIV (SEQ ID NO 15) and with a 20 times greater LIMP2 fixed concentration.
Fluorescence Polarization: The DSPIIV (SEQ ID NO 15) and its mutants, and DDQRLLL (SEQ ID NO 14) peptides (FITC labeled or non-labeled) were synthesized (American Peptide Co., Vista, Calif.). Lyophilized peptides were solubilized in acetonitrile and then were diluted at least 10,000-fold into the reactions for fluorescence polarization assessments. The reactions were done at least in duplicate at various peptide and LIMP-2 concentrations (SpectraMax M5, Molecular Device). Fluorescence polarization data were collected and analyzed with SoftMax Pro 5.0 software. Reaction mixtures contained 100 mM phosphate, pH 6.8 and 1 mM DTT.
A general note: Polarisation of emitted light reports the rotation of a fluorescent probe.

Another assay has as its target T2, GCase binding to ldLIMP2 (Homo sapiens, UniProt Q14108).
T2 construct: Purified luminal domain LIMP-2 (1d-LIMP2) was custom made (Sino Biological Inc., PRC.); purchased Sino Biological Inc
T2 sequence (Q14108 28-433 limits assumed): T1 sequence (Q14108 28-433 limits assumed)
Put plainly: Competitive immunoprecipitation of GCase with ldLIMP2 at increasing molar ratios of peptide. Here is the method:
FIG. 8A-FIG. 8C: Immunoprecipitation of GCase in the presence of ldLIMP2 and increasing molar ratios of the WT (DSPIIV (SEQ ID NO 15)) peptide. FIG. 8A depicts immunoprecipitation of GCase and LIMP-2. Purified WT GCase was preincubated with purified ldLIMP2 in a molar ratio of 1:1. Then, unlabeled DSPIIV (SEQ ID NO 15) was added in varying molar excesses (0 to 5×, top of figure) over GCase, incubated, and then immunoprecipitated with Protein G-coupled anti-LIMP-2 antibody beads. The beads were then eluted and the eluants were analyzed for GCase and ldLIMP2 on Western blots using the specified antibodies. […] In the bottom panel, ldLIMP2 recovery was the same at all peptide ratios. FIG. 8B depicts immunoprecipitation of GCase and LIMP-2. Purified ldLIMP2 was preincubated with unlabeled WT peptide at various molar ratios. Then, purified WT GCase was added in a 1:1 molar ratio with ldLIMP2, incubated, and then immunoprecipitated and processed as in FIG. 8A. […] FIG. 8C depicts immunoprecipitation of GCase and LIMP-2. Purified WT GCase was preincubated with purified ldLIMP2 in a molar ratio of 1:1. Then peptide DDQRLLL, a potential candidate for the GCase ligand for ldLIMP2, was added in varying molar excesses over WT GCase, incubated, and then immunoprecipitated and processed as in FIG. 8A. […] DDQRLLL (SEQ ID NO 14) is a dileucine peptide outside of the localized targeting region of DSPIIVDITKD (SEQ ID NO 3) (see FIG. 3).
FIG. 14A-FIG. 14B: Immunoprecipitation of GCase in the presence of ldLIMP2 and increasing molar ratios of the WT (DDQRLLL (SEQ ID NO 14)) peptide. In FIG. 14A or FIG. 14B, ldLIMP2 and DDQRLLL (SEQ ID NO 14) were incubated before (as shown in FIG. 14A) or together with (as shown in FIG. 14B) GCase and analyzed as in FIG. 8A-FIG. 8C.
Immunoprecipitation and Competition Studies: To further evaluate the interaction of ldLIMP-2, WT GCase, and the DSPIIV (SEQ ID NO 15) peptide, competitive immunoprecipitation experiments were conducted using increasing concentrations of the WT peptide in competition with GCase for binding (FIG. 8A). […]

Entries after “also recorded” stand apart in the source; their conditions may differ.

For DDQRLLL (GCase di-leucine sequence), the “binding to ldLIMP2 (δmP), in words” value with ldLIMP2 is “lack of binding; also recorded: little or no binding”. The “competition of bound GCase off ldLIMP2, in words” value in the assay with GCase binding to ldLIMP2 (GCase preincubated with ldLIMP2 1:1, then peptide 0 to 5× molar excess) was “did not compete GCase off of ldLIMP2”. The “competition with GCase for ldLIMP2 binding, in words” value in the assay with GCase binding to ldLIMP2 (ldLIMP2, peptide and GCase incubated together, up to 5× molar excess) is on record as “did not complete with GCase; also recorded: does not compete with GCase”. The “prevention of GCase binding to ldLIMP2, in words” value with GCase binding to ldLIMP2 (peptide preincubated with ldLIMP2 before GCase was added, up to 5× molar) is “did not complete with GCase; also recorded: does not compete with GCase”.

Values taken from patent US9738880B2, “Lysosomal protein targeting sequence and therapeutic applications of same” (Children's Hospital Medical Center, priority 2013, dated 2017).
